According to US20150086555A1:

Key:
Details in all cases: remark: other sources report otherwise
[1] = molecular target: T1, recombinant soluble homotrimeric HA of A/Egypt/3300-NAMRU3/08 (H5N1) (Influenza A virus A/Egypt/3300-NAMRU3/2008(H5N1)); test: HA microarray, BCC supernatant
[2] = molecular target: recombinant soluble homotrimeric HA, A/Japan/305/57 H2N2 (Influenza A virus A/Japan/305/1957(H2N2)); test: microarray, transfection SN IgG, trimeric HA
[3] = molecular target: recombinant soluble homotrimeric HA, A/northern shoveler/California/HKWF115/07 H6N4 (Influenza A virus A/northern shoveler/California/HKWF115/2007(H6N1)); test: microarray, transfection SN IgG, trimeric HA
[4] = molecular target: recombinant soluble homotrimeric HA, A/South Carolina/1/18 H1N1 (Influenza A virus A/South Carolina/1/18 (H1N1)); test: microarray, transfection SN IgG, trimeric HA
[5] = molecular target: recombinant soluble homotrimeric HA, A/Indonesia/5/05 H5N1 (Influenza A virus A/Indonesia/5/2005(H5N1)); test: microarray, transfection SN IgG, trimeric HA
[6] = molecular target: recombinant soluble homotrimeric HA, A/Egypt/3300-NAMRU3/08 H5N1 (Influenza A virus A/Egypt/3300-NAMRU3/2008(H5N1)); test: microarray, transfection SN IgG, trimeric HA
[7] = molecular target: recombinant soluble homotrimeric HA, A/chicken/Vietnam/NCVD-016/08 H5N1 (Influenza A virus A/chicken/Vietnam/NCVD-016/2008(H5N1)); test: microarray, transfection SN IgG, trimeric HA
[8] = molecular target: recombinant soluble homotrimeric HA, A/Anhui/1/05 H5N1 (Influenza A virus A/Anhui/1/2005(H5N1)); test: microarray, transfection SN IgG, trimeric HA
[9] = molecular target: recombinant soluble homotrimeric HA, A/Vietnam/1203/04 H5N1 (Influenza A virus A/VietNam/1203/2004(H5N1)); test: microarray, transfection SN IgG, trimeric HA
[10] = molecular target: recombinant soluble homotrimeric HA, A/California/4/09 H1N1 (Influenza A virus A/California/04/2009(H1N1)); test: microarray, transfection SN IgG, trimeric HA
[11] = molecular target: recombinant soluble homotrimeric HA, A/Solomon Islands/3/06 H1N1 (Influenza A virus A/Solomon Islands/3/2006(H1N1)); test: microarray, transfection SN IgG, trimeric HA
[12] = molecular target: recombinant soluble homotrimeric HA, A/Hong Kong/156/97 H5N1 (Influenza A virus A/Hong Kong/156/97 (H5N1)); test: microarray, transfection SN IgG, trimeric HA
[13] = molecular target: T2, recombinant soluble homotrimeric HA of A/Solomon Islands/3/06 (H1N1) (Influenza A virus A/Solomon Islands/3/2006(H1N1)); test: trimeric HA microarray, transfection supernatant set 3
[14] = molecular target: recombinant soluble homotrimeric HA of A/Anhui/1/05 (H5N1) (Influenza A virus A/Anhui/1/2005(H5N1)); test: trimeric HA microarray, transfection supernatant set 2
[15] = molecular target: recombinant soluble homotrimeric HA of A/Japan/305/57 (H2N2) (Influenza A virus A/Japan/305/1957(H2N2)); test: as above
[16] = molecular target: T2, recombinant soluble homotrimeric HA of …; test: as above
[17] = molecular target: recombinant soluble homotrimeric HA of A/South Carolina/1/18 (H1N1) (Influenza A virus A/South Carolina/1/18 (H1N1)); test: as above
[18] = molecular target: recombinant soluble homotrimeric HA of A/California/4/09 (H1N1) (Influenza A virus A/California/04/2009(H1N1)); test: as above
[19] = molecular target: recombinant soluble homotrimeric HA of A/Vietnam/1203/04 (H5N1) (Influenza A virus A/VietNam/1203/2004(H5N1)); test: as above
[20] = molecular target: recombinant soluble homotrimeric HA of A/Netherlands/219/03 (H7N7) (Influenza A virus A/Netherlands/219/03(H7N7)); test: as above
[21] = molecular target: recombinant soluble homotrimeric HA of A/chicken/Vietnam/NCVD-016/08 (H5N1) (Influenza A virus A/chicken/Vietnam/NCVD-016/2008(H5N1)); test: as above
[22] = molecular target: recombinant soluble homotrimeric HA of A/Indonesia/5/05 (H5N1) (Influenza A virus A/Indonesia/5/2005(H5N1)); test: as above
[23] = molecular target: T1, recombinant soluble homotrimeric HA of …; test: as above
[24] = molecular target: recombinant homotrimeric HA A/swine/Ontario/01911-2/99 H4N6 (Influenza A virus A/Swine/Ontario/01911-2/99 (H4N6)); test: protein microarray, purified IgG, trimeric HA
[25] = molecular target: recombinant soluble homotrimeric HA, A/duck/Yangzhou/02/05 H8N4 (Influenza A virus A/duck/Yangzhou/02/2005(H8N4)); test: microarray, transfection SN IgG, trimeric HA
[26] = molecular target: recombinant soluble homotrimeric HA, A/Wisconsin/67/05 H3N2 (Influenza A virus A/Wisconsin/67/2005(H3N2)); test: microarray, transfection SN IgG, trimeric HA

Row | Binder | Trimeric HA Binding: RLU [2] | Trimeric HA Binding: RLU [4] | Trimeric HA Binding: RLU [5] | Trimeric HA Binding: RLU [6] | Trimeric HA Binding: RLU [7] | Trimeric HA Binding: RLU [8] | Trimeric HA Binding: RLU [9] | Trimeric HA Binding: RLU [10] | Trimeric HA Binding: RLU [11] | Trimeric HA Binding: RLU [12] | Trimeric HA Binding: RLU [13] | Trimeric HA Binding: RLU [14] | Trimeric HA Binding: RLU [15] | Trimeric HA Binding: RLU [16] | Trimeric HA Binding: RLU [17] | Trimeric HA Binding: RLU [18] | Trimeric HA Binding: RLU [19] | Trimeric HA Binding: RLU [20] | Trimeric HA Binding: RLU [21] | Trimeric HA Binding: RLU [22] | further results
1 | TCN-523 (5248_A17) (antibody, V domains shown) VH: QVQLVQSGAEVKKPGSSVKVSCKASGGSFSNYAFSWVRQAPGQGLEWMGGTIPLLGTTNYAQKFQGRVTISADQFTSTAYMELGSLRSEDTAVYYCTRRKMTTAFDSWGQGTLVTVSS VL: QPVLTQPPSASASLGASVTLTCTLSSAYSNYKVDWYQQRPGKGPRFVMRVGTGGIVGSKGDGIPDRFSVLGSGLNRYLTIKNIQEEDESDYHCGADHGSGSNFVSPYVFGGGTKLTVL | 22000 RLU | 52000 RLU | 55000 RLU | 35500 RLU | 51300 RLU | 6080 RLU | 27800 RLU | 34400 RLU | 37600 RLU | 28400 RLU | 11000 RLU | 139 RLU | 882 RLU | 3270 RLU | 25500 RLU | 18700 RLU | 26200 RLU | 407 RLU | 17600 RLU | 24500 RLU | Trimeric HA Binding: RLU [1]: 36500 RLU; Trimeric HA Binding: RLU [3]: 46900 RLU; Trimeric HA Binding: RLU [23]: 30700 RLU; Trimeric HA Binding: RLU [24]: 85 RLU
2 | TCN-504 (3251_K17) (antibody, V domains shown) VH: QVQLQESGPGLVKPSETLSLTCAVSGVSISNIDFYWGWIRQPPGKGLEWIGNIYYTGITFYNPSLSSRVAISIDTSKNQFSLTLTSVTAADTAMYYCARHYGDSEAINDAFDIWGQGTMLTVSS VL: EIVMTQSPATLSVSPGERATLSCRASQSVGNSLAWYQQRPGQAPRLLIYGASTRATGIPPRFSGSGSGTEFTLTISSLQTEDFAVYYCQQYINWRPLSFGGGTKVEIK | 23300 RLU | 32000 RLU | 18500 RLU | 20600 RLU | 34200 RLU | 37200 RLU | 21500 RLU | 17600 RLU | 30100 RLU | 26600 RLU | 32700 RLU | 31000 RLU | 22600 RLU | 31400 RLU | 24700 RLU | 15600 RLU | 15000 RLU | 19300 RLU | 27300 RLU | 19700 RLU | Trimeric HA Binding: RLU [25]: 35100 RLU; Trimeric HA Binding: RLU [26]: 38100 RLU; Trimeric HA Binding: RLU [23]: 21400 RLU
